To fix the notation:
B1: mouse PKD2L1 (residues 64–629) (domain or fragment, UniProt A2A259 64-629, looked up)
chain: TLVSSCCLHICRSIRGLWGTTLTENTAENRELYVKTTLRELVVYIVFLVDICLLTYGMTSSSAYYYTKVMSELFLHTPSDSGVSFQTISSMSDFWDFAQGPLLDSLYWTKWYNNQSLGRGSHSFIYYENLLLGAPRLRQLRVRNDSCVVHEDFREDILNCYDVYSPDKEDQLPFGPQNGTAWTYHSQNELGGSSHWGRLTSYSGGGYYLDLPGSRQASAEALQGLQEGLWLDRGTRVVFIDFSVYNANINLFCILRLVVEFPATGGTIPSWQIRTVKLIRYVNNWDFFIVGCEVVFCVFIFYYVVEEILEIHLHRLRYLSSVWNILDLVVILLSIVAVGFHIFRTLEVNRLMGKLLQQPDTYADFEFLAFWQTQYNNMNAVNLFFAWIKIFKYISFNKTMTQLSSTLARCAKDILGFAIMFFIVFFAYAQLGYLLFGTQVENFSTFVKCIFTQFRIILGDFDYNAIDNANRILGPVYFVTYVFFVFFVLLNMFLAIINDTYSEVKEELAGQKDQLQLSDFLKQSYNKTLLRLRLRKERVSDVQKVLKGGEPEIQFEDFTSTLRELG
notes: PKD2L1, mouse, Uniprot A2A259, residues 64-629 (lacks the C-terminal coiled-coil domain); Three copies of this chain (I, II, III) stand with one PKD1L3-CTD in the heterotetramer; It is not clear whether each chain has both tags or one tag each; also called mPKD2L1 (residues 64–629); TRPP2; source: HEK293F, transiently co-transfected with mPKD1L3, purified (anti-Flag M2 resin, Strep-Tactin resin, …)
B2: mouse PKD1L3-CTD (residues 1632–2151) (domain or fragment, UniProt Q2EG98 1632-2151, looked up)
chain: PIYTAPAMNNLAKPTRKAWKKQLSKLTGGTLVQILFLTLLMTTVYSAKDSSRFFLHRAIWKRFSHRFSEIKTVEDFYPWANGTLLPNLYGDYRGFITDGNSFLLGNVLIRQTRIPNDIFFPGSLHKQMKSPPQHQEDRENYGAGWVPPDTNITKVDSIWHYQNQESLGGYPIQGELATYSGGGYVVRLGRNHSAATRVLQHLEQRRWLDHCTKALFVEFTVFNANVNLLCAVTLILESSGVGTFLTSLQLDSLTSLQSSERGFAWIVSQVVYYLLVCYYAFIQGCRLKRQRLAFFTRKRNLLDTSIVLISFSILGLSMQSLSLLHKKMQQYHCDRDRFISFYEALRVNSAVTHLRGFLLLFATVRVWDLLRHHAQLQVINKTLSKAWDEVLGFILIIVVLLSSYAMTFNLLFGWSISDYQSFFRSIVTVVGLLMGTSKHKEVIALYPILGSLLVLSSIILMGLVIINLFVSAILIAFGKERKACEKEATLTDMLLQKLSSLLGIRLHQNPSEEHADNTGY
notes: PKD1L3, mouse, Uniprot Q2EG98, carboxy-terminal domain (TM6-TM11 = S1-S6; VSD, PMD and PD), residues 1632-2151; it is not clear whether each chain has both tags or one tag each; No tag removal is described; also called mPKD1L3 (residues 1632–2151); TRP-like domain; source: HEK293F, transiently co-transfected with mPKD2L1, purified (anti-Flag M2 resin, Strep-Tactin resin, SEC in GDN)

Common to all, as to assay: cryo-EM structure; co-expressed and co-purified PKD1L3-CTD/PKD2L1 complex in 20 mM HEPES pH 7.5, 150 mM NaCl, 0.01% GDN, 0.2% Fos-Choline-8 added; without (apo, 3.4 Å) and with 20 mM CaCl2 (Ca2+-loaded, 3.1 Å)
Series [1] concerns the target B2. The conditions noted are these: both partners purified.
Series [2] deals with the molecule itself.
Series [3] has as its target B1. To be noted: both partners purified.

By stoichiometry N is commonly meant the number of molecules, sites or subunits per partner or assembly. Take B1: the “stoichiometry N” value in series [1] was 3 PKD2L1 per PKD1L3. The binding result in series [2] was “binds”.

B2: the binding result in series [3] is “binds”.

These data come from publication PMC8357825, “Structural basis for Ca^2+ activation of the heteromeric PKD1L3/PKD2L1 channel” (Nature Communications, 2021).
